Source: paper PMC6424611

Assays:
Conditions in all cases: reference: unphosphorylated peptide; sites S732
ARHGEF12 PDZ domain = ARHGEF12 PDZ domain (UniProt Q9NZN5); test: SPR, biotin-peptide on streptavidin chip
GOPC PDZ domain = GOPC PDZ domain (UniProt Q9HD26); test: SPR, biotin-peptide on streptavidin chip
MAST1 PDZ domain = MAST1 PDZ domain (UniProt Q9Y2H9); test: SPR, biotin-peptide on streptavidin chip
MAST2 PDZ domain = MAST2 PDZ domain (UniProt Q6P0Q8); test: SPR, biotin-peptide on streptavidin chip
PDZD7 PDZ domain 3 = PDZD7 PDZ domain 3 (UniProt Q9H5P4); test: SPR, biotin-peptide on streptavidin chip
ARHGEF11 PDZ domain = ARHGEF11 PDZ domain (UniProt O15085); test: automated holdup, biotin-peptide resin
DFNB31 PDZ domain 3 = DFNB31 PDZ domain 3 (UniProt Q9P202); test: automated holdup, biotin-peptide resin
DFNB31 PDZ domain 3, sequence (Q9P202 whole entry, looked up, the tested form may be a part): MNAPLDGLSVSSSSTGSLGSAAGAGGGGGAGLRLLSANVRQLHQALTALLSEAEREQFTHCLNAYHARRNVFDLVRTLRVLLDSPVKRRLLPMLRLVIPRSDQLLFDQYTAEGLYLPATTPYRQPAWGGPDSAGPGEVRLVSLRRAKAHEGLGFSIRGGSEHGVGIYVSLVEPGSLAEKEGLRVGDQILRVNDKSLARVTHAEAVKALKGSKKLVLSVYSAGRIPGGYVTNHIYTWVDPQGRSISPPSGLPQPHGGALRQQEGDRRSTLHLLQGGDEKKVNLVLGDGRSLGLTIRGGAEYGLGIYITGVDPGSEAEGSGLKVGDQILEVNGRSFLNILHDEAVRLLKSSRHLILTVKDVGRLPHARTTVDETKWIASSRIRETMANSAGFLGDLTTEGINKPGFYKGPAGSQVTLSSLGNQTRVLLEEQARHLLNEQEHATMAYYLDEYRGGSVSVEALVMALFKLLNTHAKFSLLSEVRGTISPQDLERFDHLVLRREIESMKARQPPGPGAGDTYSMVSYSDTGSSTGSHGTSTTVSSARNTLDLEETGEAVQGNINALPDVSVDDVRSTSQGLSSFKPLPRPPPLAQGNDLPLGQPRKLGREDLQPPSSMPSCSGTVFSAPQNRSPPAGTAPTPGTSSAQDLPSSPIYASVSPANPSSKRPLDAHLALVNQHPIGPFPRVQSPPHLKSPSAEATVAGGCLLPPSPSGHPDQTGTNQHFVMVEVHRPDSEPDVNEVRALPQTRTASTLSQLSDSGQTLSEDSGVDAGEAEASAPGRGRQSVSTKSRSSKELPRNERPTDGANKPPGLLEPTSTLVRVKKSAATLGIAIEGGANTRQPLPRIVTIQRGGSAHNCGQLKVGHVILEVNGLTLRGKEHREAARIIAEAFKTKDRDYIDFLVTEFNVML

DLG4 PDZ domain 2 = DLG4 PDZ domain 2 (UniProt P78352); test: automated holdup, biotin-peptide resin
GORASP1 PDZ domain = GORASP1 PDZ domain (UniProt Q9BQQ3); test: automated holdup, biotin-peptide resin
GORASP2 PDZ domain = GORASP2 PDZ domain (UniProt Q9H8Y8); test: automated holdup, biotin-peptide resin
GRASP PDZ domain = GRASP PDZ domain (UniProt Q7Z6J2); test: automated holdup, biotin-peptide resin
GRASP PDZ domain, sequence (Q7Z6J2 whole entry, looked up, the tested form may be a part): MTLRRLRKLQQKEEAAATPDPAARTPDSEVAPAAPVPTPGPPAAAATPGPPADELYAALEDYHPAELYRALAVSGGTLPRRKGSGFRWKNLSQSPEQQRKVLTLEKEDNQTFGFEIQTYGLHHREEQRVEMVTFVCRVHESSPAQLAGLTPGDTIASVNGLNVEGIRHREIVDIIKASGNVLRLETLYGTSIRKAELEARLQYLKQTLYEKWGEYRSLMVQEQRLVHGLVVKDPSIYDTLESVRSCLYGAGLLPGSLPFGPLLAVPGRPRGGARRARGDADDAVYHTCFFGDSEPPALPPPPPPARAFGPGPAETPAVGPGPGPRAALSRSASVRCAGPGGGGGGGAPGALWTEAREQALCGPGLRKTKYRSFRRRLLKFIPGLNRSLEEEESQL

GRID2IP PDZ domain 1 = GRID2IP PDZ domain 1 (UniProt A4D2P6); test: automated holdup, biotin-peptide resin
HTRA1 PDZ domain = HTRA1 PDZ domain (UniProt Q92743); test: automated holdup, biotin-peptide resin
HTRA1 PDZ domain, sequence (Q92743 whole entry, looked up, the tested form may be a part): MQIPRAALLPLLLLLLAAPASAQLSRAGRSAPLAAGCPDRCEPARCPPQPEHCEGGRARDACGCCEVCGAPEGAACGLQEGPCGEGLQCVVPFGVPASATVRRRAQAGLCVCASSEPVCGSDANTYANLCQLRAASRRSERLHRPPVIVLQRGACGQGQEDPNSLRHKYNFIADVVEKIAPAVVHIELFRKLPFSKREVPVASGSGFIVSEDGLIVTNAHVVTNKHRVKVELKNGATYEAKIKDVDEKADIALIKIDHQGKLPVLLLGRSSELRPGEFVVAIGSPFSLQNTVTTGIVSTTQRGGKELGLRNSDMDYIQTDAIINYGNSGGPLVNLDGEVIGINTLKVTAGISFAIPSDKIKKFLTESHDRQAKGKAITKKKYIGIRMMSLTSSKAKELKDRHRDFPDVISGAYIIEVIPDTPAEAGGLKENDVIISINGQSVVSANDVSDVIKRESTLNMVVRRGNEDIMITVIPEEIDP

LAP2 PDZ domain = LAP2 PDZ domain (UniProt Q96RT1); test: automated holdup, biotin-peptide resin
LIMK2 PDZ domain = LIMK2 PDZ domain (UniProt P53671); test: automated holdup, biotin-peptide resin
LNX1 PDZ domain 3 = LNX1 PDZ domain 3 (UniProt Q8TBB1); test: automated holdup, biotin-peptide resin
MAGI1 PDZ domain 2 = MAGI1 PDZ domain 2 (UniProt Q96QZ7); test: automated holdup, biotin-peptide resin
MAGI1 PDZ domain 2, sequence (Q96QZ7 whole entry, looked up, the tested form may be a part): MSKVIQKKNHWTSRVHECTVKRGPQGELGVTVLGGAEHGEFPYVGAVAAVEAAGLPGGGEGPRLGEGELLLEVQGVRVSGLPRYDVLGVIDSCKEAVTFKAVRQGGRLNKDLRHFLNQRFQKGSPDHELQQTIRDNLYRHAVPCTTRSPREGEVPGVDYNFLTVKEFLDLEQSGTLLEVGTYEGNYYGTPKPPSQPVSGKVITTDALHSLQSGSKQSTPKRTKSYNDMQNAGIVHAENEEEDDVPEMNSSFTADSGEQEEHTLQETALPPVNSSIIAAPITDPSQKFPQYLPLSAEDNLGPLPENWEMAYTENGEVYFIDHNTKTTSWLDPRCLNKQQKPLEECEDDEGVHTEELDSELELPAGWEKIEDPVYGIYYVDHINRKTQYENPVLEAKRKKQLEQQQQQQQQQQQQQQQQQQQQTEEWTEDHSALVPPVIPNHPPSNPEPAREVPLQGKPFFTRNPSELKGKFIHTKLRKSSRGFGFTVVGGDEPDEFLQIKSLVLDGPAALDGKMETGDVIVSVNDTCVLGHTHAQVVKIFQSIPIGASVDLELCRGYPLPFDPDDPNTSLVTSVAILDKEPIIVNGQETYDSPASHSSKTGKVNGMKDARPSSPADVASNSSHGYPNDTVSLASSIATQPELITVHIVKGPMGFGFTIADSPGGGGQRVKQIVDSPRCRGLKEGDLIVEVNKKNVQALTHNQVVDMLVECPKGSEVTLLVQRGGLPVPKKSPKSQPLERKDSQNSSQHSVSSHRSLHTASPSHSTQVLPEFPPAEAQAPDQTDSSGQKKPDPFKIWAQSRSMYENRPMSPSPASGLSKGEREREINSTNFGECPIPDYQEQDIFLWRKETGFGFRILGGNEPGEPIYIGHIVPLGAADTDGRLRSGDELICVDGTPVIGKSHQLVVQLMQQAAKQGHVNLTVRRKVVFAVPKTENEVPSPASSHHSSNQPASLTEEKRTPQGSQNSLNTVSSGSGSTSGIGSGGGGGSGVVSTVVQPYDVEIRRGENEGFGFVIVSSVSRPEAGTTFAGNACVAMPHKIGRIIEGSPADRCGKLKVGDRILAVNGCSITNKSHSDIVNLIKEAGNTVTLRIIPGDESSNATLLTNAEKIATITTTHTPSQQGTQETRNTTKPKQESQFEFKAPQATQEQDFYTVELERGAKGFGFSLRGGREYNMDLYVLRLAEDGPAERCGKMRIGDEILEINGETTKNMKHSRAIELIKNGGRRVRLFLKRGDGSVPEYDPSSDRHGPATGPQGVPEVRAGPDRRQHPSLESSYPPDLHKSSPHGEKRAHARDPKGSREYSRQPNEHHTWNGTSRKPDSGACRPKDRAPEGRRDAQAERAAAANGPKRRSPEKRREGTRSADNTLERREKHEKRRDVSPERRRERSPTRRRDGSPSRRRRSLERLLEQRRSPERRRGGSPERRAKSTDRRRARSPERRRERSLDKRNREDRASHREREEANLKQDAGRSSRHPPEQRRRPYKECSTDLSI

MAGI2 PDZ domain 2 = MAGI2 PDZ domain 2 (UniProt Q86UL8); test: automated holdup, biotin-peptide resin
MAGI3 PDZ domain 2 = MAGI3 PDZ domain 2 (UniProt Q5TCQ9); test: automated holdup, biotin-peptide resin
NHERF2 PDZ domain 2 = NHERF2 PDZ domain 2 (UniProt Q15599); test: automated holdup, biotin-peptide resin
NHERF3 PDZ domain 1 = NHERF3 PDZ domain 1 (UniProt Q5T2W1); test: automated holdup, biotin-peptide resin
PDZRN3 PDZ domain 1 = PDZRN3 PDZ domain 1 (UniProt Q9UPQ7); test: automated holdup, biotin-peptide resin
PPP1R9A PDZ domain = PPP1R9A PDZ domain (UniProt Q9ULJ8); test: automated holdup, biotin-peptide resin
PTPN3 PDZ domain = PTPN3 PDZ domain (UniProt P26045); test: automated holdup, biotin-peptide resin
SHANK3 PDZ domain = SHANK3 PDZ domain (UniProt Q9BYB0); test: automated holdup, biotin-peptide resin
SHROOM2 PDZ domain = SHROOM2 PDZ domain (UniProt Q13796); test: automated holdup, biotin-peptide resin

MAST1 PDZ domain, sequence (Q9Y2H9 whole entry, looked up, the tested form may be a part): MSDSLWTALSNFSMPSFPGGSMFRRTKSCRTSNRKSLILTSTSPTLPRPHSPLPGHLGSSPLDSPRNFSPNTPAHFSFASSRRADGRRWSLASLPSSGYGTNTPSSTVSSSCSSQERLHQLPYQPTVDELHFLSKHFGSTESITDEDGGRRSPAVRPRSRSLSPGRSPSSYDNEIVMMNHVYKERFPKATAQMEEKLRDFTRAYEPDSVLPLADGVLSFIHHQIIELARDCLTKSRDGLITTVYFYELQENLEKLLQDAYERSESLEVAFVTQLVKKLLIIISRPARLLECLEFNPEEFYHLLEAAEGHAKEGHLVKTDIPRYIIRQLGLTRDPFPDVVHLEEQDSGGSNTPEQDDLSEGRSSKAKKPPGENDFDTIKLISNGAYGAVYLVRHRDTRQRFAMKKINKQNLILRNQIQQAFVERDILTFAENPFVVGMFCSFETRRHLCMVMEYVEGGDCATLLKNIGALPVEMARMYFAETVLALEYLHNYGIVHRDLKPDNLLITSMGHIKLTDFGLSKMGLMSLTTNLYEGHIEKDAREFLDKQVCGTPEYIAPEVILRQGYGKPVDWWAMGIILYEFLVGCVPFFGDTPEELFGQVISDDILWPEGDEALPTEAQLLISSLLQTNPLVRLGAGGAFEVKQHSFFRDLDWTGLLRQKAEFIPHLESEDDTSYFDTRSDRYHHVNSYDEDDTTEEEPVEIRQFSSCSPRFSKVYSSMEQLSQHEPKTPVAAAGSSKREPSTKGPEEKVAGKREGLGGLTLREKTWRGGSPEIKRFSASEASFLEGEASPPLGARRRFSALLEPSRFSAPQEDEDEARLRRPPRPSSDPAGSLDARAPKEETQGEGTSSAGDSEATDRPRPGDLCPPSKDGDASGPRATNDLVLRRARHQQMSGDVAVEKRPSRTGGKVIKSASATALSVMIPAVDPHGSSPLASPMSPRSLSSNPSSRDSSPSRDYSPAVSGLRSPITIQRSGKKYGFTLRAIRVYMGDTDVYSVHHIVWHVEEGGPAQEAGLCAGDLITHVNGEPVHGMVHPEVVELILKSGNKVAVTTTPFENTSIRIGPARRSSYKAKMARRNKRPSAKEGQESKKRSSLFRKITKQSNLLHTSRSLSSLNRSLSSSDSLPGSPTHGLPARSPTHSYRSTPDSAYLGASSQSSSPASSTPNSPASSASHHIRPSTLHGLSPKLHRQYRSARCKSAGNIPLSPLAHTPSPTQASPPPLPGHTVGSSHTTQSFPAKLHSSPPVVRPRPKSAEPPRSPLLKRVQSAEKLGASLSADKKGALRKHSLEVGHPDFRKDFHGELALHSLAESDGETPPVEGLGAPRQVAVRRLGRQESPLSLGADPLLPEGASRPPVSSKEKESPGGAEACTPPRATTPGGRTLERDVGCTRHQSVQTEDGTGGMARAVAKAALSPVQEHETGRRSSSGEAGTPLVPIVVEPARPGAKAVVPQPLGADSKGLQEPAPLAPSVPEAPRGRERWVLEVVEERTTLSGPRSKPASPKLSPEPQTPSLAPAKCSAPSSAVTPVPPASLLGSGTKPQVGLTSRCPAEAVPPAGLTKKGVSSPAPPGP

With “RSK1 (ribosomal S6 kinase 1) 725-735 (from UniProt Q15418) pS732 peptide” the KD (ARHGEF12 PDZ domain) was “lost; reference 2.79 ± 0.11”, the KD (GOPC PDZ domain) was “weaker; reference 8.92 ± 0.44” and the KD (MAST1 PDZ domain) was “weaker; reference 20 ± 1”. The KD (MAST2 PDZ domain) was “weaker; reference 7.02 ± 0.27”, the KD (PDZD7 PDZ domain 3) was “weaker; reference 6.2 ± 0.9” and the “other: holdup binding intensity (BI)” value (ARHGEF11 PDZ domain) was “lost; reference 0.28 ± 0.06”. The “other: holdup binding intensity (BI)” value (DFNB31 PDZ domain 3) was “lost; reference 0.23 ± 0.04”, the “other: holdup binding intensity (BI)” value (DLG4 PDZ domain 2) was “gained; reference 0.11 ± 0.03” and the “other: holdup binding intensity (BI)” value (GORASP1 PDZ domain) was “gained; reference 0.01 ± 0.02”. For the same substance, the “other: holdup binding intensity (BI)” value (GORASP2 PDZ domain) was “weaker; reference 0.41 ± 0.02”, the “other: holdup binding intensity (BI)” value (GRASP PDZ domain) was “lost; reference 0.29 ± 0.01” and the “other: holdup binding intensity (BI)” value (GRID2IP PDZ domain 1) was “gained; reference 0.06 ± 0.02”. For the same substance, the “other: holdup binding intensity (BI)” value (HTRA1 PDZ domain) was “weaker; reference 0.44 ± 0.03”, the “other: holdup binding intensity (BI)” value (LAP2 PDZ domain) was “gained; reference −0.02 ± 0.05” and the “other: holdup binding intensity (BI)” value (LIMK2 PDZ domain) was “gained; reference 0.01 ± 0.06”. The “other: holdup binding intensity (BI)” value (LNX1 PDZ domain 3) was “gained; reference 0.04 ± 0.02”, the “other: holdup binding intensity (BI)” value (MAGI1 PDZ domain 2) was “weaker; reference 0.43 ± 0.02” and the “other: holdup binding intensity (BI)” value (MAGI2 PDZ domain 2) was “weaker; reference 0.42 ± 0.01”. For the same substance, the “other: holdup binding intensity (BI)” value (MAGI3 PDZ domain 2) was “same; reference 0.28 ± 0.03”, the “other: holdup binding intensity (BI)” value (NHERF2 PDZ domain 2) was “lost; reference 0.20 ± 0.04” and the “other: holdup binding intensity (BI)” value (NHERF3 PDZ domain 1) was “lost; reference 0.41 ± 0.01”. For the same substance, the “other: holdup binding intensity (BI)” value (PDZRN3 PDZ domain 1) was “stronger; reference 0.26 ± 0.01”, the “other: holdup binding intensity (BI)” value (PPP1R9A PDZ domain) was “gained; reference 0.00 ± 0.02” and the “other: holdup binding intensity (BI)” value (PTPN3 PDZ domain) was “gained; reference 0.05 ± 0.02”. For the same substance, the “other: holdup binding intensity (BI)” value (SHANK3 PDZ domain) was “lost; reference 0.27 ± 0.03” and the “other: holdup binding intensity (BI)” value (SHROOM2 PDZ domain) was “gained; reference 0.00 ± 0.01”.
